Measurements taken from article PMC9468158, “Transmembrane helices mediate the formation of a stable ternary complex of b5R, cyt b5, and SCD1” (Communications Biology, 2022).
Blank lines part the entries; values can stand above or below the binder they belong to.

What was measured:
[1] = target: T1, full-length b5R, released from the linker-cleaved cyt b5-b5R fusion (mouse, UniProt Q9DCN2 1-301); assay: cell-based or functional assay
T1 sequence (looked up): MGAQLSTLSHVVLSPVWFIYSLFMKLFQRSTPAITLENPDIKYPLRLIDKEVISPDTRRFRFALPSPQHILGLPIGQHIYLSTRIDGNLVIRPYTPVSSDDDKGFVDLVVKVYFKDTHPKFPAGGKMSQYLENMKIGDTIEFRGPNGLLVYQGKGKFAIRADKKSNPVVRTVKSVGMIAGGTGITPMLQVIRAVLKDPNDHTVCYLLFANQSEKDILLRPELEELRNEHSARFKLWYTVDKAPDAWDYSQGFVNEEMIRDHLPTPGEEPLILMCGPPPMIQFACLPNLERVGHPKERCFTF

[2] = target: T1, full-length b5R, released from the …; assay: SEC; TM mutants in the linker-cleavable fusions, purified and cleaved by TEV protease; SRE-10C SEC-300 (Sepax) on HPLC, FPLC buffer, 0.75 mL/min; heme absorbance (413 nm by the results, 423 nm by the methods) gives the ratio of heterodimer to monomeric cyt b5; conditions: both partners purified
[3] = target: T2, SCD1, released from the linker-cleaved SCD1-cyt b5 fusions (mouse, UniProt P13516 1-355); assay: as above; conditions: both partners purified
T2 construct: stearoyl-CoA desaturase-1 (SCD1), mouse, UniProt P13516; stands for the SCD1 chain of the fusion with full-length cyt b5 (wild type and TM mutants) and of the fusion with the soluble domain of cyt b5; the GFP tag stood at the C-terminus of the fusion; surmised: ENLYFQ is left at the C-terminus after cleavage
T2 sequence (looked up): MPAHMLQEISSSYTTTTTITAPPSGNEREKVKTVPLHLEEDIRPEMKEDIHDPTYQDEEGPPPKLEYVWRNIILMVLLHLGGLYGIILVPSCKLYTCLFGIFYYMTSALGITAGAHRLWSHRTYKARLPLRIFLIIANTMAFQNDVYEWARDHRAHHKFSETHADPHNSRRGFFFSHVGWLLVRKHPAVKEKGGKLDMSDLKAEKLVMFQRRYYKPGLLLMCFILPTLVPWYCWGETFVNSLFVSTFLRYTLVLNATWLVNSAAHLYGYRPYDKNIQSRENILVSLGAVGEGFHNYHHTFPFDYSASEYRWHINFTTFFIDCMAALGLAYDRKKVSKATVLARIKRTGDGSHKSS

B1: full-length cyt b5, released from the linker-cleaved cyt b5-b5R fusion (natural protein, mouse, UniProt P56395 1-134, looked up)
chain: MAGQSDKDVKYYTLEEIQKHKDSKSTWVILHHKVYDLTKFLEEHPGGEEVLREQAGGDATENFEDVGHSTDARELSKTYIIGELHPDDRSKIAKPSDTLITTVESNSSWWTNWVIPAISALAVALMYRLYMAED
- difference of the electron transfer rate between no NaCl and 150 mM NaCl, stable binary complex [1]: 1.04 fold
- rate of electron transfer from b5R to cyt b5 (k1, reduction of cyt b5) in the stable binary complex against the mixture of the individual proteins, 150 mM NaCl [1]: ~34 fold

B3: cyt b5 A124W, released from the linker-cleaved cyt b5-b5R-TEV chimera (natural protein, mouse, UniProt P56395 1-134, looked up)
chain: MAGQSDKDVKYYTLEEIQKHKDSKSTWVILHHKVYDLTKFLEEHPGGEEVLREQAGGDATENFEDVGHSTDARELSKTYIIGELHPDDRSKIAKPSDTLITTVESNSSWWTNWVIPAISALAVWLMYRLYMAED
notes: cytochrome b5, mouse, UniProt P56395; as m6 with the mutation; source: High Five cells (Bac-to-Bac), purified as a fusion with b5R, cleaved by TEV protease
- percent dissociation of the complex [2]: ~40%

B6: cyt b5 R128A, released from the linker-cleaved cyt b5-b5R-TEV chimera (natural protein, mouse, UniProt P56395 1-134, looked up)
chain: MAGQSDKDVKYYTLEEIQKHKDSKSTWVILHHKVYDLTKFLEEHPGGEEVLREQAGGDATENFEDVGHSTDARELSKTYIIGELHPDDRSKIAKPSDTLITTVESNSSWWTNWVIPAISALAVALMYALYMAED
notes: as for B3
- percent dissociation of the complex [2]: ~40%

B7: cyt b5 S119A, released from the linker-cleaved cyt b5-b5R-TEV chimera (natural protein, mouse, UniProt P56395 1-134, looked up)
chain: MAGQSDKDVKYYTLEEIQKHKDSKSTWVILHHKVYDLTKFLEEHPGGEEVLREQAGGDATENFEDVGHSTDARELSKTYIIGELHPDDRSKIAKPSDTLITTVESNSSWWTNWVIPAIAALAVALMYRLYMAED
notes: as for B3
- binding result [2]: binds

B8: cyt b5 A122W, released from the linker-cleaved cyt b5-b5R-TEV chimera (natural protein, mouse, UniProt P56395 1-134, looked up)
chain: MAGQSDKDVKYYTLEEIQKHKDSKSTWVILHHKVYDLTKFLEEHPGGEEVLREQAGGDATENFEDVGHSTDARELSKTYIIGELHPDDRSKIAKPSDTLITTVESNSSWWTNWVIPAISALWVALMYRLYMAED
notes: as for B3
- binding result [2]: binds

Now from value to binder:

- binding result [2]: binds
B2: cyt b5 Y127A, released from the linker-cleaved cyt b5-b5R-TEV chimera (natural protein, mouse, UniProt P56395 1-134, looked up)
chain: MAGQSDKDVKYYTLEEIQKHKDSKSTWVILHHKVYDLTKFLEEHPGGEEVLREQAGGDATENFEDVGHSTDARELSKTYIIGELHPDDRSKIAKPSDTLITTVESNSSWWTNWVIPAISALAVALMARLYMAED
notes: as for B3

- percent dissociation of the complex [3]: ~40%
B4: cyt b5 A122W, released from the linker-cleaved SCD1-cyt b5-TEV chimera (natural protein, mouse, UniProt P56395 1-134, looked up)
chain: MAGQSDKDVKYYTLEEIQKHKDSKSTWVILHHKVYDLTKFLEEHPGGEEVLREQAGGDATENFEDVGHSTDARELSKTYIIGELHPDDRSKIAKPSDTLITTVESNSSWWTNWVIPAISALWVALMYRLYMAED
notes: cytochrome b5, mouse, UniProt P56395; as m11 with the mutation; source: HEK 293S (BacMam), purified as a fusion with SCD1, cleaved by TEV protease; not shown: GFP, C-terminal, cleaved

- percent dissociation of the complex [3]: ~40%
B5: cyt b5 L125W, released from the linker-cleaved SCD1-cyt b5-TEV chimera (natural protein, mouse, UniProt P56395 1-134, looked up)
chain: MAGQSDKDVKYYTLEEIQKHKDSKSTWVILHHKVYDLTKFLEEHPGGEEVLREQAGGDATENFEDVGHSTDARELSKTYIIGELHPDDRSKIAKPSDTLITTVESNSSWWTNWVIPAISALAVAWMYRLYMAED
notes: as for B4

- binding result [2]: binds
B9: cyt b5 V123W, released from the linker-cleaved cyt b5-b5R-TEV chimera (natural protein, mouse, UniProt P56395 1-134, looked up)
chain: MAGQSDKDVKYYTLEEIQKHKDSKSTWVILHHKVYDLTKFLEEHPGGEEVLREQAGGDATENFEDVGHSTDARELSKTYIIGELHPDDRSKIAKPSDTLITTVESNSSWWTNWVIPAISALAWALMYRLYMAED
notes: as for B3
